# Source: patent US8017326B2, “Methods of modulating cell death based on the Bit-1/AES regulatory pathway” (Sanford-Burnham Medical Research Institute, priority 2002, dated 2011)
# Entries after “also recorded” stand apart in the source; their conditions may differ.
# T1: AES (Homo sapiens, UniProt Q08117)
# T1 construct: expressed in transfected cells; host or cells: yeast strain AH109
# T1 sequence (Q08117 1-197): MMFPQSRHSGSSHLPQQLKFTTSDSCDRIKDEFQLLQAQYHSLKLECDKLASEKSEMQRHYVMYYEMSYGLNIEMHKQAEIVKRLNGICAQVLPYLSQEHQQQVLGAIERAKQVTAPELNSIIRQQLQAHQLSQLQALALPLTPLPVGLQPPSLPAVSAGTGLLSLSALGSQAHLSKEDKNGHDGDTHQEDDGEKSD
# B1: Bit1: human Bit1 polypeptide of 179 residues (SEQ ID NO:2), pro-apoptotic, expressed in cells by transfection (protein, listed as Homo sapiens)
# chain: MPSKSLVMEYLAHPSTLGLAVGVACGMCLGWSLRVCFGMLPKSKTSKTHTDTESEASILGDSGEYKMILVVRNDLKMGKGKVAAQCSHAAVSAYKQIQRRNPEMLKQWEYCGQPKVVVKAPDEETLIALLAHAKMLGLTVSLIQDAGRTQIAPGSQTVLGIGPGPADLIDKVTGHLKLY
# Key:
# HEK 293 cells = experiment: Annexin V-FITC/propidium iodide staining of Bit1-transfected cells; format: cell-based, human
# Protocol: Bit1 activity was analyzed in the human embryonic kidney cell line, HEK 293. […] Furthermore, HEK 293 cells were transfected with a Bcl-2-promoter-luciferase reporter construct together with increasing amounts of Bit1 expression construct; Bcl-2 transcription was measured by quantifying luciferase […] after 24 hours in culture. In agreement with the CHO cell results, transcription from the Bcl-2 promoter was suppressed in the Bit1-transfected HEK 293 cells (see FIG. 1B). […] In particular, the percentages of annexin V-positive cells (lower right quadrants) are about 1.4% in the control and about 4.7% in the Bit1-transfected cells.
# Analysis of cell viability and apoptosis was performed as follows. Cell viability was measured by trypan blue exclusion analysis. Apoptosis was confirmed by DNA fragmentation (Oncogene; La Jolla, Calif.) thirty-six hours after transfection. Annexin-V staining (BD Biosciences Clontech; Palo Alto, Calif.) was performed according to the manufacturer's protocol.
# [1] = tested on: Heat Shock 70 kD protein 1A; experiment: Northern blot of ecdysone-induced Bit1 or AES cell lines; format: cell-based, human; conditions: ecdysone-inducible ECR-293 cell line expressing Bit1 or AES
# Protocol: (§1) To determine whether the Bit1/AES pathway can regulate the transcription of genes other than Bcl-2, two stable cell lines were established expressing either-Bit1 or AES under control of an ecdysone-inducible promoter. To detect genes regulated by Bit1 or AES, probes were prepared from the ecdysone-induced cell lines and used to screen microarrays representing 19,000 human cDNAs. […] Down-regulation of HSP-70 and thymosin 4 in cells induced to express Bit1 or AES was confirmed by Northern blot analysis (see FIG. 7).
# (§2) Northern blot analysis was performed as follows. Total RNA (10 μg) was electrophoresed on a 1% agarose-formaldehyde gel and transferred to nitrocellulose filters. The filters were hybridized using the same RNA probes as in the microarray experiments in Rapid-hyb buffer and washed according to the manufacturer's instructions (Amersham-Pharmacia).
# Thymosin β-4 = experiment: as above; format: cell-based, human; conditions: ecdysone-inducible ECR-293 cell line expressing Bit1 or AES
# Protocol: as §1, §2
# AES = biological target: T1, AES; experiment: Co-immunoprecipitation of exogenously expressed tagged Bit1 and AES; format: binding; conditions: immunoprecipitated with anti-flag, immunoblotted with anti-myc
# Protocol: Tagged Bit1 and AES were transfected into cells, and cell extracts were immunoprecipitated with anti-flag and immunoblotted with anti-myc. Equal loading of the samples was confirmed by immunoblotting of the whole extract with anti-flag.
# Immunoprecipitation and immunoblotting were performed essentially as follows. Cells were transfected with full-length clones for Bit1 and AES, which were obtained by PCR from EST clones using Pfu enzyme (Stratagene; La Jolla, Calif.) and cloned into pCMV-Myc (Clontech) or pCMV-flag (Sigma; St. Louis, Mo.). After 24 to 48 hours, cells were harvested in ice-cold NP-40 lysis buffer (1% NP-40; 20 mM Tris-HCl, pH 7.4; 150 mM NaCl; 10% glycerol, 2 mM sodium vanadate; 1 mM phenylmethyl sulfonylfluoride; 10 μg/ml leupeptin; and 5 μg/ml aprotinin) and lysed at 4° C. for 15 minutes. Lysates were incubated for two hours with the indicated antibodies, and the antibody complexes precipitated with 20 μl of Gammabind (Amersham-Pharmacia; Piscataway, N.J.) for an additional hour. After washing the beads, bound proteins were solubilized in SDS-PAGE sample buffer. Western blot analysis was performed according to standard procedures.
# 19,000 human cDNAs = experiment: cDNA microarray analysis of ecdysone-induced Bit1 or AES cell lines; format: cell-based
# Protocol: as §1
# cDNA microarray analysis was performed as follows. Total RNA was purified 48 hours after treatment with 10 μM ponasterone A (Invitrogen; San Diego, Calif.) from the ecdysone inducible cell line ECR-293-Bit1 or ECR-293-AES according to the manufacturer's instructions (Qiagen; Valencia, Calif.). cDNA probes were generated and hybridized with a microarray containing 19,000 human cDNAs from Microarray Centre at University Health Network, Ontario Cancer institute. cDNAs were labeled with fluorescent dyes (Cy3 or Cy5) using reverse transcription. Arrays were processed and hybridized essentially as described in Iyer et al., Science 283:83-87 (1999). After hybridization, arrays were scanned to measure fluorescence using a ScanArray 4000 scanner (Perkin Elmer; Meriden, Conn.). Raw data files generated by scanner software were imported into ImaGene and Gene Spring for analysis. Experiments were performed in duplicate using color reversals.
# Bcl-2 promoter = Bcl-2 promoter reporter assay in CHO cells; format: cell-based, Chinese hamster
# Source text: The entire CGI-147 open reading frame encodes a 27-kDa protein with no sequence similarity to other proteins. […] To denote this inhibitory transcriptional activity, the Clone-3 gene was denoted Bit1 for Bcl-2 inhibitor of transcription.
# HOP92 cells = experiment: Percentage of GFP-positive detached cells after transfection; format: cell-based; conditions: 72 hours after transfection; cells express only negligible amounts of AES
# Protocol: To determine if Bit1 and AES are both required for apoptosis induction, HEK 293T, HOP92, and CHO cells were transfected with a GFP (vector), GFP-Bit1, or GFP-AES fusion protein constructs, as indicated in FIG. 3E. The cells were examined 48 hours (HEK 293T and CHO) or 72 hours (HOP92) after transfection, and the percentage of GFP-positive detached cells was measured.
# Because the HEK 293T cells lack detectable Bit1 activity, it seemed possible that AES required endogenous Bit1 for the pro-apoptotic activity. An NIH data bank identified HOP92 as a cell line that expresses only negligible amounts of AES. […] CHO cells (FIG. 3E) and HeLa cells, which express both Bit1 and AES, underwent apoptosis upon transfection with either protein.
molecule,measurement,setting,value
B1,"Late stage apoptosis, both annexin V and propidium iodide uptake (upper right quadrants)",HEK 293 cells; Bit1-transfected HEK 293 cells versus control,18%
same,percentages of annexin V-positive cells (lower right quadrants),"HEK 293 cells; Bit1-transfected HEK 293 cells, control about 1.4%",about 4.7%
same,"Northern result, suppression of Heat Shock 70 kD protein 1A",[1],3 fold
same,"Northern result, suppression of Thymosin β-4",Thymosin β-4,5 fold
same,co-immunoprecipitation with AES,AES,confirmed interaction
same,Bcl-2 expression,"19,000 human cDNAs; Bit1 and AES stable cell lines",not measurably altered
same,Microarray result: gene induced,"19,000 human cDNAs; at least a two-fold induction, value is the gene","Atrophin-1 interacting protein 1; also recorded: Mannosyl (β-1,4)-glycoprotein; also recorded: insulin-like growth factor-binding; also recorded: Tissue factor pathway inhibitor 2"
same,Microarray result: gene suppressed,"19,000 human cDNAs; at least a two-fold suppression, value is the gene",Heat Shock 70 kD protein 1A; also recorded: Thymosin β-4; also recorded: Actin-binding LIM protein; also recorded: sialytransferase
same,Bcl-2 promoter activity,"Bcl-2 promoter; CHO cells, 1 μg Bcl-2-luciferase reporter construct, 24 hours in culture",down-regulate
same,expression of the Bcl-2 promoter construct,Bcl-2 promoter; transfected into CHO cells,down-regulated
same,apoptosis induction in HOP92 cells,HOP92 cells,resistant
